Test results reported in US20230056856, “COMPOSITIONS AND METHODS FOR TUNABLE REGULATION OF TRANSCRIPTION” (OBSIDIAN THERAPEUTICS, INC., published 2023).

Tests used:
[1] = biological target: ZFHD1-p65-CA2(L156H) (ZFHD-019) (Artificial); test: cell_activity; ARPE-19, GFP MFI 10 uM ACZ vs DMSO, 48 h; in U2OS ACZ EC50 of payload 1.1 uM (Example 9)
Description: Cells were cultured in DMEM-F12 media supplemented with 10% FBS.
Ligand treatment: Each cell line was plated at a density of 15,000 cells/well in 6-8 wells of a 24-well plate. Cells were allowed to adhere overnight. […] After 48 hours incubation, cells were removed from the plate with 0.25% trypsin and collected. […] For flow cytometry, samples were washed once with cell staining buffer (Biolegend, San Diego, Calif.), resuspended in cell staining buffer with 1% QSol™ buffer (Intellicyt Corporation, Albuquerque, N. Mex.), and analyzed by flow cytometry.

[2] = biological target: ZFHD1-p65 (ZFHD-004, constitutive) (Artificial (Homo sapiens/Mus …)); test: cell_activity; U2OS, constitutive TF; TMP/DMSO ratio only, not regulated by ligand
[3] = biological target: ZFHD1-p65-linker-ecDHFR(R12Y,Y100I) (ZFHD-009) (Artificial); test: cell_activity; U2OS, GFP MFI 10 uM TMP vs DMSO, 72 h
Description: (§1) Ligand treatment: Each cell line was plated in 12-well plates at a density of 80,000 cells/well and allowed to adhere overnight. Media was removed and replacement media either with 10 μM Trimethoprim (TMP) or 0.1% DMSO was added. Cells were incubated for 24 hour, 48 hour, and 72 hour timepoints. At each timepoint, cells were removed from the plates with 0.25% trypsin for collection. A 0 hour timepoint was also collected before addition of TMP or DMSO.

[4] = biological target: ZFHD1-ecDHFR(R12Y,Y100I)-p65 (ZFHD-008) (Artificial); test: as above
Description: as §1

[5] = biological target: ZFHD1-p65-ecDHFR(R12Y,Y100I) (ZFHD-005) (Artificial); test: as above
Description: as §1

[6] = biological target: ZFHD1-p65-CA2(L156H) (ZFHD-048) (Artificial); test: cell_activity; Jurkat, GFP MFI 10 uM ACZ vs DMSO, 48 h

B1: 8xZFHD1 binding sites of payload ZFHD-007 (dsDNA)
DNA 1: TAATGATGGGCGCACGAGTAATGATGGGCGGACGACTAATGATGGGCGCACGAGTAATGATGGGCGTCTAGCTAATGATGGGCGCTAGAGTAATGATGGGCGGTAGACTAATGATGGGCGCTCCAGTAATGATGGGCG
DNA 2: CGCCCATCATTACTGGAGCGCCCATCATTAGTCTACCGCCCATCATTACTCTAGCGCCCATCATTAGCTAGACGCCCATCATTACTCGTGCGCCCATCATTAGTCGTCCGCCCATCATTACTCGTGCGCCCATCATTA
B1 showed an activity [1] of roughly 1.9 fold, an activity [2] of 0.894 fold and an activity [3] of 5.71 fold. The activity [4] was 3.57 fold and the activity [5] was 11.4 fold.

B2: 8xZFHD1 BS payload ZFHD-022 (dsDNA)
DNA 1: B1 DNA 1
DNA 2: B1 DNA 2
B2 gave an activity [6] of roughly 2.1 fold.
